Data on one molecule can be found in patent US20200148768A1.

This assay addresses T1, human BTN1A1-ECD-His6 (human), Q13410.
T1 chain: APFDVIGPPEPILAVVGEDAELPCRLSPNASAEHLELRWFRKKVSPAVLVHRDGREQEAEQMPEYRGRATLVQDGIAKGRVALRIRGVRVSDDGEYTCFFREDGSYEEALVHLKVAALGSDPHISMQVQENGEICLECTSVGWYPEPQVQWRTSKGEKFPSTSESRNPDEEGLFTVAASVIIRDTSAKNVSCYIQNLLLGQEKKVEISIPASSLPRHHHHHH
Put plainly: SPR (Biacore), antibody on mIgG capture chip, BTN1A1-ECD-His 2-64 nM. Conditions: remark: other sources report otherwise.

B1: STC810 (antibody, V domains shown)
VH: EVQLQQSGPELVKPGASVKISCKASGYTFTHYNMDWVKQSHGKSLEWIGYIYPSNGGTGYNQKFKSRATLTVDKSSSTAYMELHSLTSEDSAVYYCARGAYHYGSSYAYWYFDVWGAGTTVTVSS
VL: DIQMTQTTSSLSASLGDRVTISCSASQDISNYLNWYQQKPDETVKLLISYTSSLHSGVPSRFSGSGSGTDYSLTISNLAPEDIATYYCQQSSKLPFTFGSGTELEIKRA
modifications: here or on the partner: N-glycosylated (PNGase F sensitive)
What is called Kd is the constant that tells how readily two partners part at equilibrium. B1 had an equilibrium dissociation constant (Kd) of 12.4 nM.
